# Measurements from US20210371516A1.
# Where a chain is given by its changes, count along the chain named.
# B1: PTA-2357 VH4/VK2 IgG1 antibody (antibody, V domains shown)
# VH: QVQLVQSGAEVKKPGASVKVSCKGSGYPFTDYTIHWVRQAPGQGLEWIGHISTYSGNTNNNQKFKGRATMTVDKSTSTAYMELRSLRSDDTAVYYCARGDYYGSFYKFEYWGQGTTVTVSS
# VL: DIKMTQSPSSLSASVGDRVTITCGASENIYGALNWFQRKPGKAPKLLIYGATNLADGMPSRFSGSGSGRDFTLTISSLQPEDFATYFCQNVLSIPYTFGQGTKLEIK
# B2: PTA-2357 VH1/VK2 IgG1 antibody (antibody, V domains shown)
# VH: B1 VH with A9P, V11L, P41H, T91S, A92T
# VL: B1 VL
# B3: PTA-2357 VH3/VK2 IgG1 antibody (antibody, V domains shown)
# VH: B1 VH with A92T
# VL: B1 VL
# B4: PTA-2357 VH2/VK3 IgG1 antibody (antibody, V domains shown)
# VH: B1 VH with P41H, T91S, A92T
# VL: B1 VL with K3Q
# B5: PTA-2357 VH2/VK2 IgG1 antibody (antibody, V domains shown)
# VH: B1 VH with P41H, T91S, A92T
# VL: B1 VL
# B6: PTA-2358 VH1/VK1 IgG1 antibody (antibody, V domains shown)
# VH: EVQLVQSGAELKKPGASVKLSCTASGFNIKDYYMHWVKQAPGQGLEWIGWIDPGNGDTECAPKFQGRATLTADTSINTAYLELSRLRSDDTAVYYCNAPYYSGSSHFDYWGQGTTVTVSS
# VL: DIVLTQSPDSLAVSLGERATINCRASKSVSASGYSFLHWYQQKPGQPPKLLIYLASNLESGVPDRFSGSGSGTDFTLTISSLQEEDVATYYCQHSRELRTFGQGTKLEIK
# B7: PTA-2358 VH2/VK1 IgG1 antibody (antibody, V domains shown)
# VH: B6 VH with L11V
# VL: B6 VL
# B8: PTA-2358 VH3/VK1 IgG1 antibody (antibody, V domains shown)
# VH: B6 VH with L11V, K38R
# VL: B6 VL
# B9: PTA-2358 VH5/VK1 IgG1 antibody (antibody, V domains shown)
# VH: B6 VH with L11V, L20V, K38R, L70I, N77S, L81M
# VL: B6 VL
# B10: PTA-2358 VH2/VK2 IgG1 antibody (antibody, V domains shown)
# VH: B6 VH with L11V
# VL: B6 VL with E84A
# B11: PTA-2358 VH4/VK2 IgG1 antibody (antibody, V domains shown)
# VH: B6 VH with L11V, K38R, N77S
# VL: B6 VL with E84A
# B12: PTA-2358 VH4/VK1 IgG1 antibody (antibody, V domains shown)
# VH: B6 VH with L11V, K38R, N77S
# VL: B6 VL
# B13: PTA-2358 VH5/VK2 IgG1 antibody (antibody, V domains shown)
# VH: B6 VH with L11V, L20V, K38R, L70I, N77S, L81M
# VL: B6 VL with E84A
# B14: PTA-2357 VH4/VK1 IgG1 antibody (antibody, V domains shown)
# VH: B1 VH
# VL: B1 VL with P40Q, K103Q
# B15: PTA-2357 VH2/VK1 IgG1 antibody (antibody, V domains shown)
# VH: B1 VH with P41H, T91S, A92T
# VL: B1 VL with P40Q, K103Q
# B16: PTA-2357 VH1/VK3 IgG1 antibody (antibody, V domains shown)
# VH: B1 VH with A9P, V11L, P41H, T91S, A92T
# VL: B1 VL with K3Q
# B17: PTA-2357 VH4/VK3 IgG1 antibody (antibody, V domains shown)
# VH: B1 VH
# VL: B1 VL with K3Q
# B18: PTA-2357 VH5/VK3 IgG1 antibody (antibody, V domains shown)
# VH: B1 VH with A68V
# VL: B1 VL with K3Q
# B19: PTA-2357 VH3/VK3 IgG1 antibody (antibody, V domains shown)
# VH: B1 VH with A92T
# VL: B1 VL with K3Q
# B20: PTA-2357 VH5/VK1 IgG1 antibody (antibody, V domains shown)
# VH: B1 VH with A68V
# VL: B1 VL with P40Q, K103Q
# B21: PTA-2357 VH3/VK1 IgG1 antibody (antibody, V domains shown)
# VH: B1 VH with A92T
# VL: B1 VL with P40Q, K103Q
# B22: PTA-2357 VH1/VK1 IgG1 antibody (antibody, V domains shown)
# VH: B1 VH with A9P, V11L, P41H, T91S, A92T
# VL: B1 VL with P40Q, K103Q
# B23: PTA-2357 VH5/VK2 IgG1 antibody (antibody, V domains shown)
# VH: B1 VH with A68V
# VL: B1 VL
# B24: PTA-2358 VH3/VK3 IgG1 antibody (antibody, V domains shown)
# VH: B6 VH with L11V, K38R
# VL: B6 VL with L4M, E84A, T89V
# B25: PTA-2358 VH3/VK2 IgG1 antibody (antibody, V domains shown)
# VH: B6 VH with L11V, K38R
# VL: B6 VL with E84A
# B26: PTA-2358 VH2/VK3 IgG1 antibody (antibody, V domains shown)
# VH: B6 VH with L11V
# VL: B6 VL with L4M, E84A, T89V
# B27: PTA-2358 VH5/VK3 IgG1 antibody (antibody, V domains shown)
# VH: B6 VH with L11V, L20V, K38R, L70I, N77S, L81M
# VL: B6 VL with L4M, E84A, T89V
# B28: PTA-2358 VH1/VK2 IgG1 antibody (antibody, V domains shown)
# VH: B6 VH
# VL: B6 VL with E84A
# B29: PTA-2358 VH4/VK3 IgG1 antibody (antibody, V domains shown)
# VH: B6 VH with L11V, K38R, N77S
# VL: B6 VL with L4M, E84A, T89V
# B30: PTA-2358 VH1/VK3 IgG1 antibody (antibody, V domains shown)
# VH: B6 VH
# VL: B6 VL with L4M, E84A, T89V
# Molecular target: antigen on NCI-H187 classic small cell lung carcinoma cells (ATCC Number: CRL-5804) recognised by PTA-2357
# Test: competition flow cytometry on NCI-H187 cells against mouse PTA-2357; NS0-derived
row,Relative IC50 (fold of chimeric PTA-2357),Binder
1,1.34,B1
2,1.06,B2
3,1.06,B3
4,1.23,B4
5,1.16,B5

# Molecular target: antigen on NCI-H187 classic small cell lung carcinoma cells (ATCC Number: CRL-5804) recognised by PTA-2358
# Test: competition flow cytometry on NCI-H187 cells against mouse PTA-2358; NS0-derived
row,Relative IC50 (fold of chimeric PTA-2358),Binder
1,1.11,B6
2,1.03,B7
3,1.12,B8
4,1.65,B9
5,1.03,B10
6,1.49,B11
7,2.65,B12
8,1.11,B13

# Molecular target: antigen on NCI-H187 classic small cell lung carcinoma cells (ATCC Number: CRL-5804) recognised by PTA-2357
# Test: competition flow cytometry on NCI-H187 cells against mouse PTA-2357; CHO-K1-derived
row,Relative IC50 (fold of chimeric PTA-2357),Binder
1,1.5,B1
2,1.2,B2
3,> 3,B14
4,1.57,B3
5,> 3,B15
6,2,B16
7,2.06,B17
8,> 3,B18
9,1.64,B19
10,> 3,B20
11,0.82,B4
12,1.36,B5
13,> 3,B21
14,> 3,B22
15,2.43,B23

# Molecular target: antigen on NCI-H187 classic small cell lung carcinoma cells (ATCC Number: CRL-5804) recognised by PTA-2358
# Test: competition flow cytometry on NCI-H187 cells against mouse PTA-2358; CHO-K1-derived
row,Relative IC50 (fold of chimeric PTA-2358),Binder
1,1.09,B6
2,2.43,B24
3,1.28,B7
4,1.09,B8
5,1.81,B25
6,> 3,B26
7,> 3,B27
8,1.69,B9
9,2.38,B28
10,1.29,B10
11,1.68,B11
12,1.48,B12
13,> 3,B29
14,2.68,B30
15,1.68,B13
